Experimental findings from the supplement of paper PMC5998384 are described below.

The test system of series [1] is HeLa Kyoto. In words: solubility in G1/S (NP-40 vs SDS abundance) (log2 ratio); higher = more soluble. The settings on record: cell cycle stage: G1/S.
The subject of series [2] is HeLa Kyoto. In words: solubility change mitosis vs G1/S (difference of NP-40 vs SDS log2 ratios) (log2 ratio difference); higher = more soluble in mitosis.
Series [3] relates to HeLa Kyoto. In words: thermal stability score vs G1/S (z-score of summed log2 fold changes over temperatures); higher = more thermally stable than in G1/S.
The mark [4] stands for this setting: cell cycle stage: early G1 (4.5 h after nocodazole release).
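Wherever solubility change mitosis vs G1/S (difference of NP-40 vs SDS log2 ratios) is given: synchronized HeLa Kyoto cells (double thymidine block for G1/S, nocodazole release for mitosis), protein amounts in NP-40 versus SDS lysates quantified by mass spectrometry, three biological replicates.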
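Wherever solubility in G1/S (NP-40 vs SDS abundance) is given: HeLa Kyoto cells arrested at G1/S by double thymidine block, proteins quantified by TMT10plex mass spectrometry in mild NP-40 versus SDS extracts, three biological replicates.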
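Wherever thermal stability score vs G1/S (z-score of summed log2 fold changes over temperatures) is given: synchronized HeLa Kyoto cells, proteins quantified by TMT10plex mass spectrometry, three biological replicates, mitosis taken 0.5 h after nocodazole release, G1/S directly after double thymidine block.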

As for “MDRAPTEQNVKLSAEVEPFIPQKKSPDTFMIPMALPNDNGSVSGVEPTPIPSYLITCYPFVQENQSNRQFPLYNNDIRWQQPNPNPTGPYFAYPIISAQPPVSTEYTYYQLMPAPCAQVMGFYHPFPTPYSNTFQAANTVNAITTECTERPSQLGQVFPLSSHRSRNSNRGSVVPKQQLLQQHIKSKRPLVKNVATQKETNAAGPDSRSKIVLLVDASQQTDFPSDIANKSLSETTATMLWKSKGRRRRASHPTAESSSEQGASEADIDSDSGYCSPKHSNNQPAAGALRNPDSGTMNHVESSMCAGGVNWSNVTCQATQKKPWMEKNQTFSRGGRQTEQRNNSQVGFRCRGHSTSSERRQNLQKRPDNKHLSSSQSHRSDPNSESLYFEDEDGFQELNENGNAKDENIQQKLSSKVLDDLPENSPINIVQTPIPITTSVPKRAKSQKKKALAAALATAQEYSEISMEQKKLQEALSKAAGKKNKTPVQLDLGDMLAALEKQQQAMKARQITNTRPLSYTVVTAASFHTKDSTNRKPLTKSQPCLTSFNSVDIASSKAKKGKEKEIAKLKRPTALKKVILKEREEKKGRLTVDHNLLGSEEPTEMHLDFIDDLPQEIVSQEDTGLSMPSDTSLSPASQNSPYCMTPVSQGSPASSGIGSPMASSTITKIHSKRFREYCNQVLCKEIDECVTLLLQELVSFQERIYQKDPVRAKARRRLVMGLREVTKHMKLNKIKCVIISPNCEKIQSKGGLDEALYNVIAMAREQEIPFVFALGRKALGRCVNKLVPVSVVGIFNYFGAESLFNKLVELTEEARKAYKDMVAAMEQEQAEEALKNVKKVPHHMGHSRNPSAASAISFCSVISEPISEVNEKEYETNWRNMVETSDGLEASENEKEVSCKHSTSEKPSKLPFDTPPIGKQPSLVATGSTTSATSAGKSTASDKEEVKPDDLEWASQQSTETGSLDGSCRDLLNSSITSTTSTLVPGMLEEEEDEDEEEEEDYTHEPISVEVQLNSRIESWVSETQRTMETLQLGKTLNGSEEDNVEQSGEEEAEAPEVLEPGMDSEAWTADQQASPGQQKSSNCSSLNKEHSDSNYTTQTT [SECISBP2L]”, the “solubility in G1/S (log2)” value in series [1] was -0.226. Also, the “solubility change mitosis (log2)” value in series [2] worked out at 0.0796. Moreover, the thermal stability score in series [3] (setting [4]) worked out at 1.54; in series [3] (cell cycle stage: mitosis) it was 2.5.
As to “MEEGAPRQPGPSQWPPEDEKEVIRRAIQKELKIKEGVENLRRVATDRRHLGHVQQLLRSSNRRLEQLHGELRELHARILLPGPGPGPAEPVASGPRPWAEQLRARHLEALRRQLHVELKVKQGAENMTHTCASGTPKERKLLAAAQQMLRDSQLKVALLRMKISSLEASGSPEPGPELLAEELQHRLHVEAAVAEGAKNVVKLLSSRRTQDRKALAEAQAQLQESSQKLDLLRLALEQLLEQLPPAHPLRSRVTRELRAAVPGYPQPSGTPVKPTALTGTLQVRLLGCEQLLTAVPGRSPAAALASSPSEGWLRTKAKHQRGRGELASEVLAVLKVDNRVVGQTGWGQVAEQSWDQTFVIPLERARELEIGVHWRDWRQLCGVAFLRLEDFLDNACHQLSLSLVPQGLLFAQVTFCDPVIERRPRLQRQERIFSKRRGQDFLRASQMNLGMAAWGRLVMNLLPPCSSPSTISPPKGCPRTPTTLREASDPATPSNFLPKKTPLGEEMTPPPKPPRLYLPQEPTSEETPRTKRPHMEPRTRRGPSPPASPTRKPPRLQDFRCLAVLGRGHFGKVLLVQFKGTGKYYAIKALKKQEVLSRDEIESLYCEKRILEAVGCTGHPFLLSLLACFQTSSHACFVTEFVPGGDLMMQIHEDVFPEPQARFYVACVVLGLQFLHEKKIIYRDLKLDNLLLDAQGFLKIADFGLCKEGIGFGDRTSTFCGTPEFLAPEVLTQEAYTRAVDWWGLGVLLYEMLVGECPFPGDTEEEVFDCIVNMDAPYPGFLSVQGLEFIQKLLQKCPEKRLGAGEQDAEEIKVQPFFRTTNWQALLARTIQPPFVPTLCGPADLRYFEGEFTGLPPALTPPAPHSLLTARQQAAFRDFDFVSERFLEP [PKN3]”, the “solubility in G1/S (log2)” value in series [1] was -0.177. Also, the “solubility change mitosis (log2)” value in series [2] came to 0.0781. Also, the figures for the thermal stability score in series [3] (setting [4]) and in series [3] (cell cycle stage: mitosis) were -0.36 and -0.411, respectively.
For the sequence “MEGLLTRCRALPALATCSRQLSGYVPCRFHHCAPRRGRRLLLSRVFQPQNLREDRVLSLQDKSDDLTCKSQRLMLQVGLIYPASPGCYHLLPYTVRAMEKLVRVIDQEMQAIGGQKVNMPSLSPAELWQATNRWDLMGKELLRLRDRHGKEYCLGPTHEEAITALIASQKKLSYKQLPFLLYQVTRKFRDEPRPRFGLLRGREFYMKDMYTFDSSPEAAQQTYSLVCDAYCSLFNKLGLPFVKVQADVGTIGGTVSHEFQLPVDIGEDRLAICPRCSFSANMETLDLSQMNCPACQGPLTKTKGIEVGHTFYLGTKYSSIFNAQFTNVCGKPTLAEMGCYGLGVTRILAAAIEVLSTEDCVRWPSLLAPYQACLIPPKKGSKEQAASELIGQLYDHITEAVPQLHGEVLLDDRTHLTIGNRLKDANKFGYPFVIIAGKRALEDPAHFEVWCQNTGEVAFLTKDGVMDLLTPVQTV [PARS2]”, in series [1], the “solubility in G1/S (log2)” value is -0.0434. Besides, the “solubility change mitosis (log2)” value in series [2] was -0.176. Further, the thermal stability score in series [3] (setting [4]) is -2.04; in series [3] (cell cycle stage: mitosis), -2.68.
